Measured values from PMC3711430.

Tests used:
[1] = biological target: Xenopus FANCI (Xenopus laevis (endogenous in egg extracts)); assay: co-depletion by immunodepletion; DNA-free Xenopus S-phase egg extracts; FANCD2 or FANCI antibody coupled to Sepharose 4B beads, 60 min on ice, one to two rounds; depleted extracts analysed by immunoblot
[2] = biological target: Xenopus FANCD2 (Xenopus laevis (endogenous in egg extracts)); assay: as above

percent co-depleted [1]	percent co-depleted [2]	Substance
80%		Xenopus FANCD2 (natural protein)
	80%	Xenopus FANCI (natural protein)
